Results: patent US20240197738A1 (UNIVERSITY OF NORTH CAROLINA AT CHAPEL HILL, published 2024)

Legend:
[1] = target: T1, EWSR1 (wild type) (UniProt Q01844 1-656, limits assumed); experiment: binding assay in cells; method not described, data not shown
T1 construct: also called EWSR1-WT; HA-EWSR1
T1 sequence (looked up): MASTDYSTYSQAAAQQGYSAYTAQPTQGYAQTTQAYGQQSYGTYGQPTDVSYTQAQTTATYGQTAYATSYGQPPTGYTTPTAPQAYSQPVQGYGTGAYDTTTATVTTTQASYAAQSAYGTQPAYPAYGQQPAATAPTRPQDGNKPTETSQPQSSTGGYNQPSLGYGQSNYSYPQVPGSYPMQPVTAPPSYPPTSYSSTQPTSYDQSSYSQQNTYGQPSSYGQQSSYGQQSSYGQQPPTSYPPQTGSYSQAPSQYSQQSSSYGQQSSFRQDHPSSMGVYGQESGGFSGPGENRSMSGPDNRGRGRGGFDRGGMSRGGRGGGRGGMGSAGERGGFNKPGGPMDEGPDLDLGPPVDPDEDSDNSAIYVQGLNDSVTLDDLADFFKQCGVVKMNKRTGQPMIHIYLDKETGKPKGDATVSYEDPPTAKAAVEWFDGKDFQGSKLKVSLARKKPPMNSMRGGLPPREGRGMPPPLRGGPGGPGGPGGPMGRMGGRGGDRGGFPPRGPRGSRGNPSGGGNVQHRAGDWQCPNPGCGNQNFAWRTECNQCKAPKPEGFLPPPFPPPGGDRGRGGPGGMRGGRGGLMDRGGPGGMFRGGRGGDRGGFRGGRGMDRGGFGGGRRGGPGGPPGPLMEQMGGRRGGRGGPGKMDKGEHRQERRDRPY

[2] = target: T2, CUL3-E358Q (UniProt Q13618 1-768); experiment: binding assay in cells; method not described
T2 construct: also called E358Q-CUL3
T2 sequence (Q13618 whole entry E358Q): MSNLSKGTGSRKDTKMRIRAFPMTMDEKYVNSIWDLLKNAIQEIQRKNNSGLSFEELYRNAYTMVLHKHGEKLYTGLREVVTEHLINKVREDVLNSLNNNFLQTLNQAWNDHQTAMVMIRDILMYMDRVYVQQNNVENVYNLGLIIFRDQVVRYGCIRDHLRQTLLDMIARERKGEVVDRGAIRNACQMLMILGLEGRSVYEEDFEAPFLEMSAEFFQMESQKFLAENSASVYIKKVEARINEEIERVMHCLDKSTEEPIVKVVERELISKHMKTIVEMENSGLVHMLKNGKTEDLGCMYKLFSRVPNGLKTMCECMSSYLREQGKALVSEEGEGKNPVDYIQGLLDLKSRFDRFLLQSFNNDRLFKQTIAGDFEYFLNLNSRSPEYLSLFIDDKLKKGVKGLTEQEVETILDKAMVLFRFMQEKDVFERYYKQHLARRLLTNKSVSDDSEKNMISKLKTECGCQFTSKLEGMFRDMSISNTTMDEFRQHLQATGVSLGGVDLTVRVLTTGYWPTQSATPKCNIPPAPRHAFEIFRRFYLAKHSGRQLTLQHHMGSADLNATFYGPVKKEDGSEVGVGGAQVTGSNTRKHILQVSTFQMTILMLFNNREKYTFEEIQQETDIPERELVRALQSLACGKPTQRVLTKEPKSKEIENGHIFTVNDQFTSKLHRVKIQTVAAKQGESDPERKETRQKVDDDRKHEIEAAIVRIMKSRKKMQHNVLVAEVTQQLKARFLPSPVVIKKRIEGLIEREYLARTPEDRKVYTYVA

[3] = target: T3, CUL3 (wild type) (UniProt Q13618 1-768); experiment: binding assay in cells; method not described
T3 construct: also called WT-CUL3; cullin 3
T3 sequence (Q13618 whole entry): as the sequence (Q13618 whole entry E358Q) above, with Q358E counted along it

B1: SPOP (other, human, UniProt O43791 1-374, looked up)
chain: MSRVPSPPPPAEMSSGPVAESWCYTQIKVVKFSYMWTINNFSFCREEMGEVIKSSTFSSGANDKLKWCLRVNPKGLDEESKDYLSLYLLLVSCPKSEVRAKFKFSILNAKGEETKAMESQRAYRFVQGKDWGFKKFIRRDFLLDEANGLLPDDKLTLFCEVSVVQDSVNISGQNTMNMVKVPECRLADELGGLWENSRFTDCCLCVAGQEFQAHKAILAARSPVFSAMFEHEMEESKKNRVEINDVEPEVFKEMMCFIYTGKAPNLDKMADDLLAAADKYALERLKVMCEDALCSNLSVENAAEILILADLHSADQLKTQAVDFINYHASDVLETSGWKSMVVSHPHLVAEAYRSLASAQCPFLGPPRKRLKQS
notes: Exogenous SPOP carried a GST, Flag or HA tag; endogenous SPOP was also used; also called GST-SPOP; Flag-SPOP
[1]
  binding result: no binding
[2]
  binding result: binds
[3]
  binding result: binds
